Results taken from US20180312819A1 (AP BIOSCIENCES, published 2018).

Experiments:
VEGF165 (293-VE) [1] = molecular target: T1, VEGF165 (293-VE) (UniProt P15692-4 27-191); assay: solution binding: about 40 pM VEGF165 incubated with the protein, free VEGF read by DuoSet ELISA
T1 construct: the UniProt canonical entry is a longer isoform; also called VEGF-A
Method: (§1) After incubation, free VEGF was detected using the Human VEGF DuoSet ELISA Development Kit (R&D Systems Catalog No. DY293B) according to the manufacturer's instructions. The data was analyzed by sigmoidal curve fitting using Prism 4.

VEGF165 (293-VE) [2] = molecular target: T1, VEGF165 (293-VE); assay: solution binding: VEGF165 incubated 45 min at 37 C with titrated VID, free VEGF measured by ELISA (Human VEGF DuoSet kit)
Method: as §1

T1 sequence (P15692 other isoform, or with tags, fused parts or gaps limits assumed): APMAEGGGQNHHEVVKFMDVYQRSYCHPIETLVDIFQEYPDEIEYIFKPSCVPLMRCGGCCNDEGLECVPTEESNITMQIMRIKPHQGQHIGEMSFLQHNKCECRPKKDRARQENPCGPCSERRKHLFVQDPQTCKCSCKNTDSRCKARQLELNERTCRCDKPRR

EC50 (VEGF165 (293-VE) [1]): ~700 pM | EC50 (VEGF165 (293-VE) [2]): 73.1 pM
B1: VID (fragment of ACVP-1 wherein the VID has the Fc domain fused to its C-terminus) (Fc fusion)
chain: GRPFVEMYSEIPEIIHMTEGRELVIPCRVTSPNITVTLKKFPLDTLIPDGKRIIWDSRKGFIISNATYKEIGLLTCEATVNGHLYKTNYLTHRQTNTIIDVVLSPSHGIELSVGEKLVLNCTARTELNVGIDFNWEYPSSKHQHKKLVNRDLKTQSGSEMKKFLSTLTIDGVTRSDQGLYTCAASSGLMTKKNSTFVRVHEK
notes: not shown: human IgG1 Fc region as in ACVP-1
